Test results: publication PMC8805316, “NanoBRET in C. elegans illuminates functional receptor interactions in real time” (BMC Molecular and Cell Biology, 2022)

Biological target: Nluc::NPR-11::eYFP in membranes of transfected HEK293 cells (C. elegans) (UniProt Q18179)
Sequence (Q18179 whole entry): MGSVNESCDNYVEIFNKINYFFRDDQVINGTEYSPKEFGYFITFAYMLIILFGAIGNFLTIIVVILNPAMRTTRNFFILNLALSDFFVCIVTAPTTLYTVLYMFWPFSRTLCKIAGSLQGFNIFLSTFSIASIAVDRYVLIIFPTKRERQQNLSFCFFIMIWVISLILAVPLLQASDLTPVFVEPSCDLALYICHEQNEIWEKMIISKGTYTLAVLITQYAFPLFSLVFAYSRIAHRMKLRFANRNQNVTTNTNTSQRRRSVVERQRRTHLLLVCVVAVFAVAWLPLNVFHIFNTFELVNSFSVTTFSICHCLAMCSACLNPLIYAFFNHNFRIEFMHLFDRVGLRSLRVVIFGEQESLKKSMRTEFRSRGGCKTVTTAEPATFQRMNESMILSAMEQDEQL

cAMP reporter gene assay, forskolin-stimulated HEK293 cells transfected with NPR-11::eYFP (no Nluc): EC50 of NPR-11 activation: 2.3 nM
Substance: FLP-34-1 (unlabeled) (peptide)
